Molecular target: covalently-linked IL-2/SD-01 complex (human, UniProt P60568 21-153)
Assay: SPR

B1: his-tagged human IL-2Rα (receptor)
chain: ELCDDDPPEIPHATFKAMAYKEGTMLNCECKRGFRRIKSGSLYMLCTGNSSHSSWDNQCQCTSSATRNTTKQVTPQPEEQKERKTTEMQSPMQPVDQASLPGHCREPPPWENEATERIYHFVVGQMVYYQCVQGYRALHRGPAESVCKMTHGKTRWTQPQLICTGEMETSQFPGEEKPQASPEGRPESETSCLVTTTDFQIQTEMAATMETSIFTTEYQ
Work on B1 yielded a koff of 0.0048 s⁻¹.

From PMC10925001 (2024)
